Test results: patent US20060270596A1 (CENTRE NATIONAL DE LA RECHERCHE SCIENTIFIQUE CNRS, published 2006)
One block for each binder: values may come before it.

Key:
[1] = target: T1, human THAP1 (THanatos-Associated-Protein-1), full length (human, UniProt Q9NVV9 1-213); test: yeast two-hybrid
T1 construct: these tags are not written into the chain; also called hTHAP1; THAP1 wild type
T1 sequence: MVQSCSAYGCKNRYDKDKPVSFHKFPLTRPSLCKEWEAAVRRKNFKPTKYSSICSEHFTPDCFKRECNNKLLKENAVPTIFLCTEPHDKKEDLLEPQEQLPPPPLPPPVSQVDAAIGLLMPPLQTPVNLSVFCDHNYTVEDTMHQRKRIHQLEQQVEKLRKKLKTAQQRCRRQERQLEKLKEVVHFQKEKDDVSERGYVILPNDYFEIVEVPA

[2] = target: T1, human THAP1 …; test: yeast two-hybrid, chemokine bait and THAP1 prey
[3] = target: T2, GST (glutathione S-transferase) control protein (UniProt P08515 1-218 = GST); test: GST pull-down, negative control: in vitro translated 35S-labelled chemokine or cytokine on GST alone immobilised on glutathione sepharose, SDS-PAGE, fluorography
T2 construct: Negative control in GST pull-down assays; also called GST beads; GST alone
T2 sequence (P08515 whole entry): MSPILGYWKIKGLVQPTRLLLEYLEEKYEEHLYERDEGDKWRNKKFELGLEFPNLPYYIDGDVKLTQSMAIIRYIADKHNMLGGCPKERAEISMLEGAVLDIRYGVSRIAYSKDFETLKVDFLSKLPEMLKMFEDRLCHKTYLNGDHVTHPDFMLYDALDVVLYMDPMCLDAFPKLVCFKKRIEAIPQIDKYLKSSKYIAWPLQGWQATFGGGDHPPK

[4] = target: T3, GST-THAP3 181-284 (chemokine-binding domain of THAP3) (human, UniProt Q8WTV1 136-239); test: GST pull-down, 35S-labelled in vitro translated molecule
T3 construct: not shown: GST (glutathione S-transferase of pGEX2T) and its linker at the N end
T3 sequence: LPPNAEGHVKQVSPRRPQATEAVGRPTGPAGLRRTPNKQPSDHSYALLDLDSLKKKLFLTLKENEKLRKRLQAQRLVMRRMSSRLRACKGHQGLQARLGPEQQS

[5] = target: T4, GST-THAP1 fusion protein (THAP1 amino acids 1-213) (human, UniProt Q5RCE4 1-213 (Pongo abelii entry)); test: GST pull-down: in vitro translated 35S-labelled chemokine or cytokine on the GST fusion immobilised on glutathione sepharose, SDS-PAGE, fluorography
T4 construct: Expressed in E. coli, immobilized on glutathione sepharose; also called immobilized GST-THAP1; not shown: glutathione S-transferase encoded by vector pGEX-2T (Amersham Pharmacia Biotech)
T4 sequence: T1 sequence

[6] = target: T5, human chemokine SLC/CCL21, mature form (amino acids 24-134) (human, UniProt O00585 24-134); test: yeast two-hybrid
T5 construct: GenBank NP-002980; Used as Gal4 fusion in two-hybrid and as 35S-labelled in vitro translation product in pull-downs; also called SLC/6Ckine; SLC/CCL21 wild type
T5 sequence: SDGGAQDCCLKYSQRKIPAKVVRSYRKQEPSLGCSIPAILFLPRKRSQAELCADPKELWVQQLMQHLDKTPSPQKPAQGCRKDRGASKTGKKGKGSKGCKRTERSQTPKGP

chemokine CXCL8 = target: T6, chemokine CXCL8 (UniProt P10145 1-99, limits assumed); test: GST pull-down: in vitro translated 35S-labelled protein on the GST fusion immobilised on glutathione sepharose, SDS-PAGE, fluorography
T6 construct: 35S-labelled in vitro translation product
T6 sequence (looked up): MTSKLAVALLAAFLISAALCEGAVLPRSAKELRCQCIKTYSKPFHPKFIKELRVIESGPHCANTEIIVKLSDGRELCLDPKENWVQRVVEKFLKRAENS

[7] = target: T1, human THAP1 …; test: yeast two-hybrid, THAP1 bait
[8] = target: T4, GST-THAP1 fusion protein (THAP1 amino …); test: GST pull-down: in vitro translated 35S-labelled protein on GST-THAP1 immobilised on glutathione sepharose, SDS-PAGE, fluorography
Protocol: To confirm the results obtained in yeast, THAP1 mutants were also tested in in vitro GST pull down assays. Wild type THAP1 expressed as a GST-tagged fusion protein and immobilized on glutathione sepharose (as described in example 16), was incubated with radiolabeled in vitro translated THAP1 mutants. In vitro-translated THAP1 mutants were generated with the TNT-coupled reticulocyte lysate system (Promega, Madison, Wis., USA) using pGADT7-THAP1-C1, -C2, -C3, -N1, -N2 or -N3 vector as template. 25 μl of each ³⁵S-labelled THAP1 mutant was incubated with immobilized GST or GST-THAP1 wild-type protein overnight at 4° C., in the following binding buffer: 10 mM NaPO4 pH 8.0, 140 mM NaCl, 3 mM MgCl2, 1 mM dithiothreitol (DTT), 0.05% NP40, and 0.2 mM phenylmethyl sulphonyl fluoride (PMSF), 1 mM Na Vanadate, 50 mM β Glycerophosphate, 25 μg/ml chimotrypsine, 5 μg/ml aprotinin, 10 μg/ml Leupeptin. Beads were then washed 5 times in 1 ml binding buffer. Bound proteins were eluted with 2× Laemmli SDS-PAGE sample buffer, fractionated by 10% SDS-PAGE and visualized by fluorography using Amplify (Amersham Pharmacia Biotech). As expected, THAP1-C1, -C2, -C3, -and -N3 interacted with GST/THAP1 (FIG. 16B).

B1: THAP1-N3 deletion mutant (amino acids 1-192) (other)
chain: MVQSCSAYGCKNRYDKDKPVSFHKFPLTRPSLCKEWEAAVRRKNFKPTKYSSICSEHFTPDCFKRECNNKLLKENAVPTIFLCTEPHDKKEDLLEPQEQLPPPPLPPPVSQVDAAIGLLMPPLQTPVNLSVFCDHNYTVEDTMHQRKRIHQLEQQVEKLRKKLKTAQQRCRRQERQLEKLKEVVHFQKEKDD
notes: Gal4 fusion, in vitro translation product or GFP fusion according to assay
- binding result [1]: binds

B2: human chemokine ELC/CCL19, mature form (amino acids 22-98) (ligand)
chain: GTNDAEDCCLSVTQKPIPGYIVRNFHYLLIKDGCRVPAVVFTTLRGRQLCAPPDQPWVERIIQRLQRTSAKMKRRSS
notes: Residues are printed against GenBank NM-006274; Gal4-BD fusion or in vitro translation product
- binding result [2]: binds
- binding result [3]: no binding

B3: human cytokine interferon gamma (amino acids 21-166) (ligand)
chain: CYCQDPYVKEAENLKKYFNAGHSDVADNGTLFLGILKNWKEESDRKIMQSQIVSFYFKLFKNFKDDQSIQKSVETIKEDMNVKFFNSNKKKRDDFEKLTNYSVTDLNVQRKAIHELIQVMAELSPAAKTGKRKRSQMLFQGRRASQ
notes: Residues are given against GenBank NM-000619; Negative control; also called IFNγ; IFN
- binding result [1]: no binding
- binding result [4]: no binding
- binding result [5]: no binding
- binding result [3]: no binding

B4: THAP1-C2 deletion mutant (amino acids 120-213) (other)
chain: MPPLQTPVNLSVFCDHNYTVEDTMHQRKRIHQLEQQVEKLRKKLKTAQQRCRRQERQLEKLKEVVHFQKEKDDVSERGYVILPNDYFEIVEVPA
notes: as for B1
- binding result [1]: binds
- binding result [6]: binds

B5: GST-THAP2 133-228 (chemokine-binding domain of THAP2) (other)
chain: EAKKRIIKLEKEIASLRRKMKTCLQKERRATRRWIKATCLVKNLEANSVLPKGTSEHMLPTALSSLPLEDFKILEQDQQDKTLLSLNLKQTKSTFI
notes: Immobilized on glutathione sepharose; not shown: glutathione S-transferase encoded by vector pGEX2T (Amersham Biosciences)
- binding result (chemokine CXCL8): no binding

B6: THAP1-C3 deletion mutant (amino acids 143-213) (other)
chain: MHQRKRIHQLEQQVEKLRKKLKTAQQRCRRQERQLEKLKEVVHFQKEKDDVSERGYVILPNDYFEIVEVPA
notes: as for B1
- binding result [1]: binds
- binding result [6]: binds

B7: THAP1-C1 deletion mutant (amino acids 90-213) (other)
chain: KEDLLEPQEQLPPPPLPPPVSQVDAAIGLLMPPLQTPVNLSVFCDHNYTVEDTMHQRKRIHQLEQQVEKLRKKLKTAQQRCRRQERQLEKLKEVVHFQKEKDDVSERGYVILPNDYFEIVEVPA
notes: Gal4 fusion, in vitro translation product or GFP fusion according to assay; also called THAP1-CL; THAP1ΔTHAP
- binding result [1]: binds

The next lines start with the values.

- binding result [3]: no binding
B8: human chemokine MIG/CXCL9, mature form (amino acids 23-125) (ligand)
chain: TPVVRKGRCSCISTNQGTIHLQSLKDLKQFAPSPSCEKIEIIATLKNGVQTCLNPDSADVKELIKKWEKQVSQKKKQKNGKKHQKKKVLKVRKSQRSRQKKTT
notes: Residues are printed against GenBank NM-002416; Gal4 fusion or in vitro translation product

- binding result [7]: no binding
B9: THAP1ΔQRCRR mutant (deletion of residues 168-172) (other)
chain: MVQSCSAYGCKNRYDKDKPVSFHKFPLTRPSLCKEWEAAVRRKNFKPTKYSSICSEHFTPDCFKRECNNKLLKENAVPTIFLCTEPHDKKEDLLEPQEQLPPPPLPPPVSQVDAAIGLLMPPLQTPVNLSVFCDHNYTVEDTMHQRKRIHQLEQQVEKLRKKLKTAQQERQLEKLKEVVHFQKEKDDVSERGYVILPNDYFEIVEVPA

- binding result [1]: no binding
- binding result [6]: no binding
- binding result [4]: no binding
- binding result [8]: no binding
B10: THAP1-N1 deletion mutant (amino acids 1-90) (other)
chain: MVQSCSAYGCKNRYDKDKPVSFHKFPLTRPSLCKEWEAAVRRKNFKPTKYSSICSEHFTPDCFKRECNNKLLKENAVPTIFLCTEPHDKK
notes: Gal4 fusion, in vitro translation product or GFP fusion according to assay; also called zinc finger domain of THAP1
